Test results from paper PMC8230831.

Molecular target: CXC chemokine receptor 4 (CXCR4) (human (endogenous in HeLa)) (UniProt P61073)
Details: scale: apoptotic figures per 400 x magnification tumor field

Chain of UniProt P61073 (P61073 whole entry): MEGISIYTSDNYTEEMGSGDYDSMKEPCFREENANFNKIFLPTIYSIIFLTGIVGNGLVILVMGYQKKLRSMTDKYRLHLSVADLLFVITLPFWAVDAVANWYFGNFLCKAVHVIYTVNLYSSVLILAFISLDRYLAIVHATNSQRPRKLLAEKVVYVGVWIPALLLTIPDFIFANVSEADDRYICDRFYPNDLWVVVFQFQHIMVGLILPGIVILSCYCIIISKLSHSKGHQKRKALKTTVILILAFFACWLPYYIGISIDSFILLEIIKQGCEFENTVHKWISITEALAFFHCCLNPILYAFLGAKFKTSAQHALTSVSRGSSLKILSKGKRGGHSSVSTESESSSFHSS

Substance: biparatopic EPIX4-(RK)-GFP-H6/T22-GFP-H6 NPs (complex)
- apoptotic figures in CXCR4+ M5 colorectal tumors of mice, 0.5 to 24 h after a single 200 µg i.v. dose (histology); peak at 24 h: 30
